The test system of series [1] is carrageenan-induced paw edema. Description: Carrageenan-induced footpad edema model. As to conditions: 3 mg/kg, p.o. The series is classed as in vivo, C57.BL/6 mice. As for the experimental part:
Carrageenan-Induced Footpad Edema is an acute rodent model of innate immune function. The in vivo efficacy of mouse anti-PGE2 antibody 2B5-8.0 is assessed in a carragenan-induced paw edema model. The induction of paw inflammation with carrageenan is performed similarly as previously described (Joseph P. Portanova, et al. J. Exp. Med. 184: 883-891 (1996)). Intradermal (ID) injection of an inflammatory agent causes a rapid influx of neutrophils and fluid edema which peaks at approximately 4 hours, followed by an influx of macrophages and monocytes which peaks at approximately 48 hours. C57.BL/6 mice (8-10-week-old, Jackson Laboratories, Bar Harbor, Me.) were injected ID in the rear footpad with 30 μL of either PBS (left) or λ-carrageenen (Sigma Aldrich, St. Louis, Mo.) in PBS (right) at a concentration of 5.0 mg/mL (150 μg/mouse). Rear footpad thickness was measured by Dyer spring caliper model #310-119 at baseline (time=0), and 4 hours post carrageenan challenge. Significant difference for paw thickness was determined by comparing mean paw swelling for each treatment group to vehicle in a Student's two-tailed t-test. Mice were given a dose titration of an anti-PGE2 antibody (2B5-8.0) intraperitonially (IP) 18 hours prior to carrageenan challenge, or Indomethacin, PO 2 hours prior to challenge. The endpoint measured was the difference in paw swelling (edema) between right and left paws 4 hours after treatment.

Series [2] in a line: ^3H-PGE2 competition ELISA (prostaglandin selectivity). Type of series: binding. Here is the method:
Alternatively, prostaglandin selectivity was determined using a ^3H-PGE2 competition ELISA. Plates were coated with 50 μL/well of 5 μg/ml of goat anti-human IgG (Fc) (Thermo Scientific # 31170, Hudson, N.H.) or goat anti-mouse IgG (Fc) (Thermo Scientific # 31125, Hudson, N.H.) in PBS and incubated overnight at 4° C. The following day plates were flicked and blotted dry. Plates were blocked with 200 μL/well of Superblock (Thermo Scientific # 37515, Hudson, N.H.), 1 hour at room temperature. Plates were flicked and blotted dry. Monoclonal antibodies were diluted to 0.04 μg/ml in PBST (Abbott Bioresearch Center, Worcester, Mass.)/10% Superblock and 50 μL of each was added to each well (2 ng/well) of the pre-blocked ELISA plate and incubated for 1 hour at room temperature. Wells were washed 3 times with PBS/0.1% Tween-20. ^3H-PGE2 (Perkin Elmer # NET-428, Waltham, Mass.) was diluted in PBST/10% Superblock to 6 nM (2× stock). Each prostaglandin (Cayman Chemicals, Ann Arbor, Mich.) was prepared in PBST+10% Superblock at various concentrations ranging from 2000 μM (2× stock) to 0.00004 μM (2×). Equal volumes of the ^3H-PGE2 solution and of each prostaglandin dilution were mixed. Fifty microliters of this mixture was then added to each well of the plate and incubated for 1 hour at room temperature. Wells were washed manually 6 times with PBST/10% Superblock and 50 μL of scintillation fluid (Perkin Elmer # 6013621, Waltham, Mass.) added to each well. Plates were read using a TopCount reader (Perkin Elmer, Waltham, Mass.) with a 5 minute count delay. IC50 number was determined using GraphPad Prism 5 (GraphPad Software, La Jolla, Calif.). The cross reactivity index was then calculated by IC50 of PGE2/IC50 of other prostaglandin(s)
In general terms: ELISA stands for enzyme-linked immunosorbent assay.

For series [3], the system named is PGE2 induced Ca++ influx in HEK293 Gα16 cells stably transfected with human EP4 receptor. Description: EP4 bioassay: PGE2 induced Ca++ flux (FLIPR). Type of series: cell-based. Particulars: PGE2 25 pm; read-out: IC50 (pM) @ PGE2 25 pm Cellular Potency in EP4 assay. As for the experimental part:
The ability of anti-PGE2 antibody to inhibit cellular response of PGE2 in vitro was determined in a Ca^++ flux assay in HEK293 Gα16 cells (Abbott Bioresearch Center, Worcester, Mass.) stably transfected with human EP4 receptor. In brief, an expression plasmid encoding one of the four human PGE2 receptors, EP4, and an expression plasmid encoding Gα16, were co-transfected into human embryonic kidney cell line 293 cells (ATCC# CRL1573, Manassas, Va.). The stable clones co-expressing both human EP4 and Gα16 protein were selected using standard methods (Joseph Sambrook and David W. Russell. Molecular Cloning: A Laboratory Manual Publisher. Published by Cold Spring Harbor Laboratory Press, 2001) and used for the EP4 bioassay. The HEK293 Gα16 cells were plated in black/clear poly-D-lysine plates (Corning #3667, Corning, N.Y.) and incubated with a Ca^++-sensitive dye (Molecular Devices, Sunnyvale, Calif.) for 90 minutes. Stock PGE2 (in 200 proof ethanol) was diluted with FLIPR buffer [containing 1×HBSS (Invitrogen Carlsbad, Calif.), 20 mM HEPES (Invitrogen Carlsbad, Calif.), 0.1% BSA (Sigma, St. Louis, Mo.) and 2.5 mM Probenecid (Sigma, St. Louis, Mo.)]. Anti-PGE2 antibodies or isotype matched control antibodies were also pre-diluted in FLIPR buffer. 25 μl of PGE2 or pre-incubated PGE2/antibody mixture was added to the wells pre-plated with cells. The dose response of PGE2 was determined on a serial titration of PGE2 and using FLIPR1 or Tetra (Molecular Devices, Sunnyvale, Calif.) and EC50 was determined using GraphPad Prism 5 (GraphPad Software, La Jolla, Calif.). […] Ca^++ flux was monitored using FLIPR1 and data was analyzed using GraphPad Prism 5 (GraphPad Software, La Jolla, Calif.).

The nature of series [4]: Capillary zone electrophoresis. Type of series: physicochemical. As to conditions: running buffer pH 5.5; compared with Hu2B5.2, Hu2B5.4, Hu2B5.6, Hu2B5.8. An excerpt: Capillary zone electrophoresis is a capillary electrophoresis method in which the capillary is filled with buffer and the separation mechanism is based on differences in electrophoretic mobility of the analyte through the buffer. The electrophoretic mobility of a molecule is related to the charge-to-size ratio. A Beckman-Coulter ProteomeLab PA 800 (Beckman Coulter, Fullerton, Calif.) was used for the CZE analysis. A neutral capillary (eCAP neutral, 56 cm total length, 50 μm I. D. Beckman-Coulter, P/N 477441, Fullerton, Calif.) was used. The method used a 30.2 cm capillary with a detection window 20.2 cm from the sample introduction inlet. The running buffer was 100 mM EACA (6-Aminocaproic acid, Sigma A7824-100 G, St. Louis, Mo.) with 0.1% MC (from 1% Methylcellulose solution, Convergent Bioscience, cat# 101876, Toronto, ON, Canada), pH 5.5.

The nature of series [5]: Pharmacokinetics of hu2B5.7 and hu2B5.4 in Sprague-Dawley rats. Particulars: male Sprague-Dawley rats, IV 4 mg/kg. Type of series: in vivo. As for the experimental part: Pharmacokinetic parameters were calculated by non-compartmental analysis using WinNonlin.
MSD streptavidin plates (Meso Scale Discovery) were washed with phosphate buffered saline containing 0.05% Tween-20 (diluted from 10×PBS, Abbott Bioresearch Center, Media Room, Worcester, Mass. and Tween-20, Sigma, St. Louis, Mo.). Plates were blocked with 250 μL/well blocking solution (MSD Block, Meso Scale Discovery, diluted to 3% final concentration in PBS) for 1 hour, covered, with shaking (600 rpm) at room temperature. After washing, 70 μL of biotinylated PGE2 (Prostoglandin E2-biotinamide, Cayman Chemical, Ann Arbor, Mich., cat# 10006987, lot# 190831-191028; 0.01 ug/mL in assay buffer) was added to each well. The plates were covered and incubated with shaking (600 rpm) for 1 hour at room temperature.
Prior to analysis, rat serum samples were thawed on ice, mixed gently, and centrifuged at 14,000 rpm for 3 minutes at 4° C. in an eppendorf centrifuge. Standard curve and control samples were prepared in rat serum. Tecan Evo automated liquid handling station was used to dilute standard curve, high, medium, and low controls, and serum samples in assay buffer, keeping 1% final serum concentration constant. MSD plates were washed again and study samples, standard curve samples and blanks, as well as high, medium, and low controls were added (70 μL/well). The plates were covered, and incubated for 1 hour with shaking (600 rpm) at room temperature.
After incubation, the MSD plates were washed, and 70 μL sulfo-tagged goat anti-human IgG (Meso Scale Discovery; diluted to 1 ug/mL in assay buffer) was added to each well. The MSD plates were covered, and incubated with shaking (600 rpm) for 1 hour at room temperature, then the plates were washed and developed with 2× Read Buffer (Meso Scale Discovery). Chemilumeniscence was measured within ten minutes on the MSD Sector Imager 6000.
Standard curves were analyzed using four-parameter logistic fit and sample concentrations were calculated by XLfit4 software version 2.2.1 Build 16, ([…].). Pharmacokinetic parameters were calculated for each animal using Winonlin software version 5.0.1 (Pharsight Corporation, Mountain View, Calif.) by noncompartmental analysis.
Surgically altered jugular vein cannulated, JVC) male Sprague-Dawley Rats (approximately seven weeks old, weighing 240-390 grams) were purchased from Charles River Laboratories (Wilmington, Mass.). The animals were housed in rooms maintained at constant temperature and humidity under a 12 hour light/dark cycle, fed with normal rodent chow and were allowed food and water ad libitum. Hydration and clinical conditions of the animals were monitored daily.
0.2 mL blood samples were collected from the rats at various timepoints, allowed to clot for 30 minutes at room temperature, centrifuged for 3 minutes at 13,200 rpm, the serum transferred to eppendorf tubes and stored frozen at −80° C.

Series [6] in a line: Biotin-PGE2 ELISA (PGE2-biotinamide binding to captured IgG).

As usually defined, the % Inhibition is the change of the read-out against control, counted positive when it falls. A high value points to a response far below the control. For `COc1ccc2c(c1)c(CC(=O)O)c(C)n2C(=O)c1ccc(Cl)cc1` [Indomethacin, reference compound], the “Δ Paw Swelling (mm)” value in series [1] (2 hours prior to challenge, 4 hours post challenge) is 0.486 ± 0.03 mm. For the same molecule, the “% Inhibition” value in series [1] (paw swelling 4 hours post challenge) amounted to 57 ± 3.5%.

B1: Hu2B5.7: humanized 2B5-8.0; VH SEQ ID NO 72, VL SEQ ID NO 73 (antibody, V domains shown)
VH: EVQLVQSGAEVKKPGASVKVSCKASGYTFTKYWLGWVRQAPGQGLEWMGDIYPGYDYTHYNEKFKDRVTLTTDTSTSTAYMELRSLRSDDTAVYYCARSDGSSTYWGQGTLVTVSS
VL: DVLMTQTPLSLPVTPGEPASISCTSSQNIVHSNGNTYLEWYLQKPGQSPQLLIYKVSNRFSGVPDRFSGSGSGTDFTLKISRVEAEDVGVYYCFQVSHVPYTFGGGTKVEIKR
A word on the IC50: it is the concentration that gives 50% inhibition. As a reminder, the MRT is a mean duration of stay, worked out from the concentration-time curve. A word on the Vss: it is a proportionality between amount in the body and measured concentration, not a real space. A word on the Vz: it is the apparent volume that relates the amount in the body to the concentration in plasma or blood. A higher Vz goes with extensive tissue distribution. What is called EC50 is the concentration giving half of the maximal effect. The low end stands for greater potency, the high end for weaker potency. Consider B1, for which the “prostaglandin binding specificity in ^3H-PGE2 competition ELISA” value in series [2] was “demonstrated specificity to PGE2”. Further, the IC50 in series [3] came out at 78 pM. Further, the “migration in capillary zone electrophoresis” value in series [4] is given as “migrated more basic”. Moreover, in series [5], the “AUC0-∞” value turned out to be 9900 ± 1800 µg·h/mL, the “CL” value came out at 9.84 ± 1.7 mL/day/kg, the “MRT” value came out at 16.8 ± 1.0 days and the “T½” value came out at 12.4 days. In addition, in series [5], the “Vss” value is 0.165 ± 0.0198 L/kg and the “Vz” value is 0.176 ± 0.0308 L/kg. Also, the EC50 in series [6] is 79 pM.

B2: Hu2B5.5: humanized 2B5-8.0; VH SEQ ID NO 68, VL SEQ ID NO 69 (antibody, V domains shown)
VH: EVQLVQSGAEVKKPGASVKVSCKASGYTFTKYWLGWVRQAPGQGLEWMGDIYPGYDYTHYNEKFKDRVTLTTDTSTSTAYMELRSLRSDDTAVYYCARSDGSSTYWGQGTLVTVSS
VL: DVVMTQTPLSLPVTPGEPASISCTSSQNIVHSNGNTYLEWYLQKPGQSPQLLIYKVSNRFSGVPDRFSGSGSGTDFTLKISRVEAEDVGVYYCFQVSHVPYTFGGGTKVEIKR
Regarding B2, the IC50 in series [3] amounted to 47 pM. For the same molecule, the “migration in capillary zone electrophoresis” value in series [4] is “migrated more basic”. This molecule also gave an EC50 in series [6] of 37 pM.

Values taken from US8624002B2, “Prostaglandin E2 binding proteins and uses thereof” (AbbVie, Inc., priority 2008, dated 2014).
